The text below walks through data of paper PMC2806608.

The test addresses human FcμR on BW5147 T cell transductants (human) (UniProt O60667). In words: radioligand binding.
UniProt O60667, sequence (O60667 17-390): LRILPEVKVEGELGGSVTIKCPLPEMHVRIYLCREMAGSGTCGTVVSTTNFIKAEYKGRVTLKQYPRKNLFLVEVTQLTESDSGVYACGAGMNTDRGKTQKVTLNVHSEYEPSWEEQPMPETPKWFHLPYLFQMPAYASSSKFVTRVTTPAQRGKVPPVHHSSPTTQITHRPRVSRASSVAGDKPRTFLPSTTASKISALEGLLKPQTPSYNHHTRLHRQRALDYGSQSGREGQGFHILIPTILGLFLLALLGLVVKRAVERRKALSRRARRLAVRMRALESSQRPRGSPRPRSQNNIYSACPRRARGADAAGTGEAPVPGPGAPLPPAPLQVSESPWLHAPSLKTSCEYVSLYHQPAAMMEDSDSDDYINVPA

Usually Kd stands for a measure of binding affinity in units of concentration. In turn, “^125I-labeled human IgM myeloma protein (antibody)” yielded a Kd of 10.8 nM. In other words, the double-digit nanomolar range.
